The series concerns the molecule itself. Description: crystal structure; co-crystal structure of celastrol with mouse GSTP1.

B1: mouse GSTP1 (enzyme, UniProt P19157 1-210, looked up)
chain: MPPYTIVYFPVRGRCEAMRMLLADQGQSWKEEVVTIDTWMQGLLKPTCLYGQLPKFEDGDLTLYQSNAILRHLGRSLGLYGKNQREAAQMDMVNDGVEDLRGKYVTLIYTNYENGKNDYVKALPGHLKPFETLLSQNQGGKAFIVGDQISFADYNLLDLLLIHQVLAPGCLDNFPLLSAYVARLSARPKIKAFLSSPEHVNRPINGNGKQ
notes: GSTP1 (glutathione S-transferase pi 1), mouse; co-crystallised with celastrol; also called GST pi
Turning to B1, the binding result was “binds”.

(Values after PMC8160069, “Ethacrynic acid targets GSTM1 to ameliorate obesity by promoting browning of white adipocytes” (Protein & Cell, 2020).)
